The values below come from the nanobody polyreactivity screen of Harvey et al. (2022).

This series can be described thus: yeast display, Sf9 membrane polyspecificity reagent, FACS + sequencing; frameworks hold sequencing errors. The method, boiled down: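 A synthetic nanobody library was expressed on Saccharomyces cerevisiae BJ5465 by galactose induction for 36–48 hours. The library was stained for 1 hour at 4 °C with 10% biotinylated, detergent-solubilized Sf9 membrane reagent and enriched with streptavidin microbeads before FACS. Low and high (top ~1%) gates were set on anti-HA fluorescence for expression and streptavidin fluorescence for reagent binding, and each polyreactivity label reflects the gate of origin.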
Turning to “QVQLVESGGGLVQAGGSLRLSCAASGLTFYTYAMGWYRQAPGKERELVAAISGRGSRTFYADSVKGRFTISRDNAKNTVYLQMNSLKPEDTAVYYCAARVWSSFTGAYDYWGQGTQVTVSS”, the “polyreactivity (PSR sort gate)” value is “high polyreactivity”.

Take “QVQLVESGGGLVHAGCSLRLSCDASGRIFKNYAMGWYRQAPGKERELVAAISWSGGRTYYADSVKGRFTISRDYAKNTVYLQMHRLKPEDTEVYYCATAARRGPTSIEPFGYGSWGQGTQVTVSS”: the “polyreactivity (PSR sort gate)” value is listed as “high polyreactivity”.

In the case of “QVHHVDSGGGIVKAGGSLRLSCPASGFIFPRNVLGWSRQEPGKERELVAAISRSGGSTYYADSVKGRFTISRDNAKNTVYLPMNSLKPEDTAVYYGGKRTFYNGEFWGQGTQVTVSS”, the “polyreactivity (PSR sort gate)” value is recorded as “low polyreactivity”.

As for “QVQLVESGGRLVQAGGSLRLICAASGLIFYHNAMGWYRQAPGKERELVAAITASGGSTYYADSVKGRFTISRDNAKNTVYLQMNSLKPEDTAVYSCSADGPLDSDLDYWGQGTQVTVSS”, the “polyreactivity (PSR sort gate)” value is recorded as “low polyreactivity”.

As to “QVQLVESGVGLVQAGGSLRLTCAASGRIFVTNAKGWYRQAPGKERELVAAITRGVNTNYADSVKGRFTISRDNAKNTVYLQMNSLKPEDTAVYYCAADSSYYYVYGYFPGYYYWGQGTQVTVSS”, the “polyreactivity (PSR sort gate)” value was “low polyreactivity”.

With “QVQRVESGGGLVQAGGSLRLSCAASGRIFSWYTMGWYRQAPGKERELVAVITSGGTTKYADSVKGRFTISRDNAKNTVYLQMNSLKPEDTAVYYCNVAGRDYAVRWGSFDYWGQGTQVTVSS”, the “polyreactivity (PSR sort gate)” value is “low polyreactivity”.

For “QVQLVESGGGLVQAGGSLRLSCAASGRTSRVYAMGWYRQAPGTERELVAAITWRGGNTYYADSVKGRFTISRDHAKNTVYLQMNSMKPEDTAVYYCAADPWSYGSWHGDSWGQGTQVTVSS”, the “polyreactivity (PSR sort gate)” value is listed as “high polyreactivity”.

On to “QVQLVESGGGLVQAGGSLRLSCAASGRIFFRNALGWYRQAPGKERELVAVINTGGSTNYADSVKGRFTISRDNAKNTVYLQMNSLTPEDTAVYYCAVDRASRRTYNQYGYWGQGTQVTVSS”, for which the “polyreactivity (PSR sort gate)” value is “high polyreactivity”.

With “QVQLVESGGGLFQAGGSLRLSCAASGRIFRGYAMGWYRQAPGKERELVAAIDRVGRTKYADSVKGRFTISRDNAKNTVYLHMNSLKPEDTAVYYCAAKASRVDWGYGYWGQGTQVTVSA”, the “polyreactivity (PSR sort gate)” value is “high polyreactivity”.

On to “QVQLVESGAGLVQAGGSLRLSCAASGRTFVDNTMGLYTHAPGKERELVASISSGGSTYYADSVKGRFTISRDNAKNTVYLQMNRLKPEDTAVYDCATGDTLFVFYPDYEYWGQGTQVTVSS”, for which the “polyreactivity (PSR sort gate)” value is given as “low polyreactivity”.

As for “QVQLVESGGGLVQAGGSLRLSCAASGIFDPNAMGWNRQAPRKERELVAAITSGGSTNYADSVKGRFTISRDNAKNTVYLQMNSLKPEDTAVYYCNRVEGRTRWADEMNYWGQGTQLTVSS”, the “polyreactivity (PSR sort gate)” value is “low polyreactivity”.

Regarding “QVQLVESGGGLVQAGGSLRLSCAASGSTFSGYAMGWYRQAPGKERELVAAISYSGGGTYYEDSVKGRFTISRDNAKNTVYLQMNSLKPEDTAVYYCATLGSLRYYWPGYDYWGQGTQVTVSS”, the “polyreactivity (PSR sort gate)” value is “low polyreactivity”.

In the case of “QVQLVESGGCLVQAGGSLRLSCAASGRIFVTYAMGWYRQAPGNERELVAAITSRGGRTYYADSVKGRFTISRDYAKNTVYLQMNSLKPEDTAVYYCAASPGPGARYYYWCQGTQVTVSS”, the “polyreactivity (PSR sort gate)” value is reported as “high polyreactivity”.

For “QVQLVESGRGLVQAGGSLRLSCAASGSIFGGYGMGWYRQAPGKERELVAAITSGSSTYYADSVKGRFTISRDNAKNTVYLQMNSLKPEDTAVYYCAARPYPHSAYEGDYWGRGTQVTVSS”, the “polyreactivity (PSR sort gate)” value is “low polyreactivity”.

In the case of “QDQHVESGGGLVQAGGSLRLSCAASGSTFRKYAMGRSRQAPGKERELVAAISWSGGRTYYADSVKGRFTISRDNAKKTFYLQLNSLKPEDTAVYYCAASIPGTRSDGYWGQGTQVTVSS”, the “polyreactivity (PSR sort gate)” value is listed as “high polyreactivity”.

Consider “QVQLVESGGGLVQAGGSLRLSCAASGRTFGNYAMGWYRQAPGKERELVASITYTVGNTYYADSVKGRFTISRDNAKNTVYLQMNSLKPEDTAVYYCAADGFYLQFYHYDYWGQGTQVTVSS”, for which the “polyreactivity (PSR sort gate)” value is recorded as “low polyreactivity”.

Consider “QVQLVESGGGLVQAGGSLRLSCAASGSTFTYYAMGWYRQAPGKERELVAAITSGGSTNYADSVKGRFTISRDNAKNTVYLQMNSLKPEDTAVYYCAAEYVRQNYEMDYWGQGTQVTVSS”, for which the “polyreactivity (PSR sort gate)” value is recorded as “low polyreactivity”.

For “QVQLVESGGGLVQAGRSLRLSCAASGYTIRYYAMGWYRQAPGKERELVAAITNRGGTYYADSVKGRFTISRDNAKNTVYLQLNSLKPEDNAVYYCAARYYWIDFKFGGPRDYWGQGTQVTVSS”, the “polyreactivity (PSR sort gate)” value is “high polyreactivity”.

Consider “QVQLVESGGGLVQAGGSLRLSCAAYGSIFDVHAMGWNRQAPGKERELVAAISDSGGSTYYADSVKGRFTISRDNAKNTVYLLMKSLKPDDTAVYYCNADWSWFNYYDFDYWGQGTHVTVSS”, for which the “polyreactivity (PSR sort gate)” value is reported as “low polyreactivity”.

Take “QVQLVESGGGLVQAGGSLRLSCAASGRTFSYYAMGWYRQAPGKERELVAAISSGGSTNYADSVKGRFTISRDNAKNTVYLQMNSLKPEDTAVYYCATSSICGSGRVRWVTYYYWGQGTQVTVSS”: the “polyreactivity (PSR sort gate)” value is on record as “low polyreactivity”.

In the case of “QVQLVESGGGLVQAGGSLRLSCAASGNIFSFNDMGWYRQAPGKERELVAAITSSDSTNYADSVKGRFTISRDNAKNTVYLQMNSLKPEDTAVFYCATEILTAARDTVVYQFYLGYYYWGQGTQVTVSS”, the “polyreactivity (PSR sort gate)” value was “low polyreactivity”.

On to “QVQLVESGGGLVQAGGSLRLSCAASGSIFYVYVMGWYRQAPGKERELVAGISYRGGSTYYADSVKGRFTISRDNAKNTVYLQMNSLKPEDTAVYYCNAGVWTYWHIEMDYWGQGTQVTVSS”, for which the “polyreactivity (PSR sort gate)” value is reported as “low polyreactivity”.

As to “QVQLVESGGGLVQAGGSLRLSCAAYGGIFPSYAMGWYRQAPGKERELVAAISRTGGSTYYADSVKGRFTISRDNAKNTVYLQMNSLKPEDTAVYYCAAEWAWYLGVYRRDRMYWGQGTQVTVSS”, the “polyreactivity (PSR sort gate)” value is reported as “high polyreactivity”.

On to “QVQLVESGGGLVQAGGSLRLSCAASGFTISLNTMGWYRQAPGKERELVAAINSGDSTYADSVKGRFTISRDNAKNTGYFQMNSLKPEDTAVYYCNADPDWWYPYFYWGQGTQVTVSS”, for which the “polyreactivity (PSR sort gate)” value is “low polyreactivity”.

As for “QVQLVESRGGLVQAGGSLRLSCAASGRILPYHVMGWYSQAPGKERELVAAISSGGTTDYADSVKGRFTISRDNANNTVYLQMNSLKPEDTAVYYCAATYDYWTWGYDYWGQGTQVTVSS”, the “polyreactivity (PSR sort gate)” value was “low polyreactivity”.

Turning to “QVQVVESGGGLVQAGGSLRLSCAASGRILYPYTMGWYRQAPGKERELVAAISYSGGRTYYADSVKGRFTISRDNAKNTVYLQMNRLKPEDTAVYYFNAVFRVRGASQFDYWGQGTQVTVSS”, the “polyreactivity (PSR sort gate)” value is “high polyreactivity”.

As to “QVQLVDSGRGLVQAGGSLRLSCAASGSIFGKYAMGWYREAPGKERELVAAISKGGGRTSYADSVKGRFTISRDNAKNTVYLQMNSLKPEDTAVYYCNVAQNYWAGLYDYWGQGTQVTVSS”, the “polyreactivity (PSR sort gate)” value is given as “high polyreactivity”.

For “QVQLVESGGGLVQAGGSLRLSCAASGNTFPVSYTMGWYRQAPGKEREFVAVITSGGGRTYADSVKGRFTISRDTAKNTVYLQMNSLKPEDTAVYYCAVRPRVSSWKFRSRRYGYWGQGTRVTVSS”, the “polyreactivity (PSR sort gate)” value is “high polyreactivity”.

Consider “QVQLVESGGGLVQAGGSLRLSCAASGSTFYFYAMGWYRQAPGKERELVAAISQSGGTTYYADSVKGRFTISRDNAKNTVFLQMNSLKPEDTAVYYCNADTDTWYTEYDYWGQGTQVTVSS”, for which the “polyreactivity (PSR sort gate)” value was “low polyreactivity”.

On to “QVQLVESGGGLVQAGGSLRLSCAASGITFTAYAMGWYRQAPGKERELVATINSTGITNYADSVKGRFTISRDNAKNTVYLQMNSLNPEDTAVYYCAADLLDISSYDGMDYWGQGTQVTVSS”, for which the “polyreactivity (PSR sort gate)” value is listed as “low polyreactivity”.

For the sequence “QVQLVESGGLLVQAGGSLSLSCAASGRTFTPNAMGWYRQAPGKEREFVAAITYYGGSTRYADSVKGRFTISRDNAKNTVYLQMNSLIPEDTAVYYCAADVHYRYFYSWSSYSGYGYWGQGTQVTVSS”, the “polyreactivity (PSR sort gate)” value is listed as “low polyreactivity”.

With “QVQLVESGGGLVQAGGSLRLSCAASGITFYYYAMGWYRQAPGKERELVAAISFRGGSTYYADSVKGRFTISRDNAKNTVYLQMNSLKPEDTAVYYCAAETSPSWYTWVTYDYWGQGTKVTVSS”, the “polyreactivity (PSR sort gate)” value was “high polyreactivity”.

As to “QVQLVESVGGLVQAGGRLRLSCAASGITFEPYAMGWYRPAPGKEREFVADITWSGGSTYYADSVKGRFTISRDNAKNTVYLQMNSLKPEDTAVYYCAADGWTSYWSDYWGQGTQVTVSS”, the “polyreactivity (PSR sort gate)” value is “low polyreactivity”.

Consider “QVQLVESGGGLDQAGGSLRLSCAASGFIFIQNDMGWYRQAPGKEREFVASISKDGGRTYYADSVKGRFTISRDNAKNTVYLQMNSLKPEDTAVVYCNTYPRGNWGNFVEQDYDYWGHGTQVTVSS”, for which the “polyreactivity (PSR sort gate)” value was “low polyreactivity”.

As for “QVQLVESGGGLVQAGGSLRLSCAASGSTFSENAMGWYRQAPGKERELVAAISWGGGSTYYADSVKGRFTISRDYAKNTVYLQMNSLKPEDTAVYYCNADVFDDYGYFESDYWGQGTQVTVSS”, the “polyreactivity (PSR sort gate)” value is on record as “low polyreactivity”.

Turning to “QVQLVESGGGLDQAGGSLRLSCAASGITFPGYAMGWYRQAPGKERELVAAIDWSGDGTYYADSVKGRFTISRDNAKNTVYLQMNSLKPEDTAVYYCAKDNYPNHSTVLAVIYDYWGQGTQVTVSS”, the “polyreactivity (PSR sort gate)” value was “low polyreactivity”.

Consider “QVQLVESGGGLVQAGGSLRLSCAASGFTFSHYAMGLSRQAPGKERELVAAITWSGGSTYYADSVKGRFTISRDNAKNTVYLQMKSLKPEDTAVYYCIALVIARNIEMDYWGQGTQVTVSS”, for which the “polyreactivity (PSR sort gate)” value is “high polyreactivity”.

For “QVQLVESGGGLVQAGGSLRLSCAASGSTFRVYAMGWYRQAPGKERELVAAISRSGSITYYADSVKGRFTISRDNAKNTVYLQMNSLKPEDTAVYYCAARTYSRFTASTYYYWGQGTQVTVSS”, the “polyreactivity (PSR sort gate)” value is listed as “high polyreactivity”.

For “QVQLVESGGGLVQAGGSLRLSCAASGSTFLYYAMGWYRQAPGKERELVAAIRVGGGRTYYADSVKGRFTISRDNAKNTVYLQMNSLKPEDTAVYYCAAKRRHRVPFDYWGQGTQVTVSS”, the “polyreactivity (PSR sort gate)” value is on record as “high polyreactivity”.

For the sequence “QVQLVESGGGLVQAGGSLRLSCAASGITFWNNAMGWYRQAPGKERELVATISSNGGRTYYADSVKGRFTISRDNAKNTVYLQMNSLKPEDTAVYYCNAARRAYGYNYWGQGTQVTVSS”, the “polyreactivity (PSR sort gate)” value is given as “low polyreactivity”.
